Measured values as given in PMC3216493 (Scientific Reports, 2011).

B1: SplitCore183 (split subunit of coreN plus coreC183) (complex)
chain 1: MDIDPYKEFGATVELLSFLPSDFFPSVRDLLDTASALYREALESPEHCSPHHTALRQAILCWGELMTLATWVGVNLEDP
chain 2: MASRDLVVSYVNTNMGLKFRQLLWFHISCLTFGRETVIEYLVSFGVWIRTPPAYRPPNAPILSTLPETTVVRRRGRSPRRRTPSPRRRRSQSPRRRRSQSRESQC
B2: SplitCore149 (split subunit of coreN plus coreC149) (complex)
chain 1: B1 chain 1
chain 2: MASRDLVVSYVNTNMGLKFRQLLWFHISCLTFGRETVIEYLVSFGVWIRTPPAYRPPNAPILSTLPETTVV
B3: HBc149H6 (contiguous truncated HBV core protein, aa 1-149, with C terminal His6) (domain or fragment)
chain: MDIDPYKEFGATVELLSFLPSDFFPSVRDLLDTASALYREALESPEHCSPHHTALRQAILCWGELMTLATWVGVNLEDPASRDLVVSYVNTNMGLKFRQLLWFHISCLTFGRETVIEYLVSFGVWIRTPPAYRPPNAPILSTLPETTVV

Target: the molecule itself
Assay: native gel or EMSA

Protein | binding result
B1 | binds
B2 | binds
B3 | binds
